Assay [1] concerns the target recombinant E. coli-expressed human IL-18 (human, UniProt Q14116 37-193). Description: SPR. (Surface plasmon resonance follows binding to a sensor surface in real time, without labels.)
Assay [2] has as its target T1, recombinant E. coli-expressed human IL-4 (human, UniProt P05112 25-153).
T1 construct: made and purified at GSK; also called Interleukin-4; rhIL-4
T1 sequence: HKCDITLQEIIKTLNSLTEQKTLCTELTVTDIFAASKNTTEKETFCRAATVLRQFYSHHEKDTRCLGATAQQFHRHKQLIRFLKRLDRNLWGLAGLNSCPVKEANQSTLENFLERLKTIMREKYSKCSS
In words: ELISA.

In assay [3] the target is T2, recombinant E. coli-expressed human IL-13 (human, UniProt P35225 35-146).
T2 construct: made and purified at GSK; also called Interleukin-13; rhIL-13
Description: ELISA. A general note: An ELISA detects its analyte on a solid surface through an enzyme-linked reagent.

Assay [4] deals with T3, recombinant Sf21-expressed human IL-5 (human, UniProt P05113 20-134). In words: SPR.
The next assay addresses T4, RNAse A (UniProt P61823 27-150).
T4 sequence (looked up): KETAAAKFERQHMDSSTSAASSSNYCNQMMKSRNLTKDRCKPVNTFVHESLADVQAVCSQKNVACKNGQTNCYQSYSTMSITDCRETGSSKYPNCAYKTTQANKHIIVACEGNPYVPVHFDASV
In words: ELISA.

For assay [5], the target named is T1, recombinant E. coli-expressed human IL-4. Description: ELISA, supernatant.
The target of assay [6] is recombinant human TNF-alpha (human, UniProt P01375 77-233). In words: ELISA, supernatant.
For a further assay, the target named is T5, HEL (Hen Egg Lysozyme) (hen, UniProt P00698 19-147).
T5 construct: also called hen egg white lysozyme
Description: ELISA.

Assay [7] has as its target T2, recombinant E. coli-expressed human …. In words: cell-based or functional assay.
The target is the same in assay [8]. Description: SPR, purified.
The target is the same in assay [9]. Description: SPR.
The target is the same in assay [10]. In words: ELISA, IL-13 binding to IL13Ralpha2/Fc.
For assay [11] the target is unchanged. In words: SPR, no IL-4 bound.
Assay [12] has as its target T6, recombinant E. coli-expressed cynomolgus IL-13 (cynomolgus, UniProt Q0PW92 21-132).
T6 construct: also called cyno IL-13
In words: SPR.

The target of assay [13] is T2, recombinant E. coli-expressed human …. Description: SPR. This is another data set of the same source.
Assay [14] has the same target. Description: SPR exp 1.
In assay [15] the target is T6, recombinant E. coli-expressed …. In words: SPR. This is another data set of the same source.
For assay [16], the target named is T7, recombinant E. coli-expressed cynomolgus IL-4 (cynomolgus, UniProt P79339 25-153).
T7 construct: also called cyno IL-4
T7 sequence (looked up): T1 sequence with E26K, V29I, F33L
In words: SPR.

Assay [17] concerns the target T2, recombinant E. coli-expressed human …. Description: SPR exp 3.
Assay [18] has the same target. In words: SPR exp 2.
Assay [19] addresses T1, recombinant E. coli-expressed human IL-4. In words: SPR exp 1.
The target in assay [20] is T2, recombinant E. coli-expressed human …. In words: SPR exp 1. The source holds these as a separate data set.
The target of assay [21] is T3, recombinant Sf21-expressed human IL-5. In words: ELISA.
Assay [22] has as its target T2, recombinant E. coli-expressed human …. In words: SPR. The source holds these as a separate data set.
Assay [23] shares this target. In words: SPR, purified. The source holds these as a separate data set.
The target in assay [24] is T6, recombinant E. coli-expressed …. In words: SPR. The source holds these as a separate data set.
In assay [25] the target is T2, recombinant E. coli-expressed human …. In words: SPR exp 1. The source holds these as a separate data set.
The target is the same in assay [26]. Description: SPR stoichiometry.
Assay [27] has the same target. Description: SPR. This is another data set of the same source.
The target in assay [28] is T1, recombinant E. coli-expressed human IL-4. Description: ELISA, IL-4 binding to IL4Ralpha-Fc.
The target in another assay is T8, recombinant human VEGF (human, UniProt P15692-4 27-191).
T8 construct: also called VEGF165; hVEGF165
In words: ELISA.

Assay [29] has as its target T9, recombinant human IGF-1R-his tag (human, UniProt P08069 31-932).
T9 construct: bought; also called rhIGF-1R
Description: ELISA.

Assay [30] addresses T2, recombinant E. coli-expressed human …. In words: SPR. This is another data set of the same source.
The target in assay [31] is T1, recombinant E. coli-expressed human IL-4. In words: SPR.
For assay [32] the target is unchanged. In words: SPR, purified.
For assay [33] the target is unchanged. In words: SPR, positive dissociation.

Residue numbers refer to the chain shown, from its start. Where two headings read alike, the source gives them in different places.

T5 sequence (P00698 19-147): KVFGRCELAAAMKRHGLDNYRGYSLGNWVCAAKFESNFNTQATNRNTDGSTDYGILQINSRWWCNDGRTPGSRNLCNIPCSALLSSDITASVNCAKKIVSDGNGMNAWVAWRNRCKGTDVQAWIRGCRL

B1: Anti-human IL-18 (humanised) monoclonal antibody (antibody, human IgG1, kappa, V domains shown)
VH: QVQLVQSGAEVKKPGASVKVSCKVSGEISTGYYFHWVRQAPGKGLEWMGRIDPEDDSTKYAERFKDRVTMTEDTSTDTAYMELSSLRSEDTAVYYCTTWRIYRDSSGRPFYVMDAWGQGTLVTVSS
VL: DIQMTQSPSSVSASVGDRVTITCLASEDIYTYLTWYQQKPGKAPKLLIYGANKLQDGVPSRFSGSGSGTDYTLTISSLQPEDFATYYCLQGSKFPLTFGQGTKLEIKR
notes: also called Anti-human IL-18 mAb
In the case of B1, the Kd in assay [1] worked out at 0.035 nM.

B2: Mepolizumab (Anti-human IL-5 monoclonal antibody) (antibody, human IgG1, kappa, V domains shown)
VH: QVTLRESGPALVKPTQTLTLTCTVSGFSLTSYSVHWVRQPPGKGLEWLGVIWASGGTDYNSALMSRLSISKDTSRNQVVLTMTNMDPVDTATYYCARDPPSSLLRLDYWGRGTLVTVSS
VL: DIVMTQSPDSLAVSLGERATINCKSSQSLLNSGNQKNYLAWYQQKPGQPPKLLIYGASTRESGVPDRFSGSGSGTDFTLTISSLQAEDVAVYYCQNVHSFPFTFGGGTKLEIKR
notes: also called IL-5 mAb; anti-human IL5 mAb
On to B2, for which the binding result in assay [2] and in [3] was “no binding” throughout. For the same molecule, the Kd in assay [4] stood at 0.34 nM.

B3: BPC1809 (bispecific antibody, human IgG1, kappa)
heavy: not shown
light: DIVLTQSPSSLSASVGDRVTITCKASQSVDYDGDSYMNWYQQKPGKAPKLLIYAASNLESGIPSRFSGSGSGTDFTFTISSLQPEDIATYYCQQSNEDPPTFGQGTKVEIKRTVAAPSVFIFPPSDEQLKSGTASVVCLLNNFYPREAKVQWKVDNALQSGNSQESVTEQDSKDSTYSLSSTLTLSKADYEKHKVYACEVTHQGLSSPVTKSFNRGEC
notes: also called Anti IL-4 heavy Chain-GS-anti RNAse A camelidVHH
B3: the binding result (in [2]; with RNAse A) was “binds” throughout.

B4: BPC1822 (bispecific antibody, human IgG1, kappa)
heavy: not shown
light: B3 light
For B4, the binding result in assay [5] and in [6] was “binds” throughout.

B5: BPC1823 (bispecific antibody, human IgG1, kappa)
heavy: not shown
light: B3 light
notes: also called Anti IL-4 Heavy Chain-GS-anti TNF-a adnectin
Turning to B5, the binding result in [5] and in [6] was “binds” throughout.

B6: BPC1816 (bispecific antibody, human IgG1, kappa)
heavy: not shown
light: B3 light
notes: also called Anti IL-4 heavy Chain-GS-NARV
Consider B6, for which the binding result (with HEL (Hen Egg Lysozyme); in assay [2]) was “binds” throughout.

B7: Anti-human IL-13 monoclonal antibody (also known as 586) (antibody, human IgG1, kappa)
heavy: not shown
light: DIVMTQSPLSLPVTPGEPASISCRSSQNIVHINGNTYLEWYLQKPGQSPRLLIYKISDRFSGVPDRFSGSGSGTDFTLKISRVEADDVGIYYCFQGSHVPWTFGQGTKLEIKRTVAAPSVFIFPPSDEQLKSGTASVVCLLNNFYPREAKVQWKVDNALQSGNSQESVTEQDSKDSTYSLSSTLTLSKADYEKHKVYACEVTHQGLSSPVTKSFNRGEC
notes: also called Anti-human IL-13 mAb; anti-IL13 mAb
In the case of B7, the “Mean IC50 (whole blood phospho-STAT6)” value in [7] worked out at 1.47 nM. Also, the Kd was 0.41 nM in assay [8]; 0.38 nM in [9]; 0.366 nM in [11]; 0.171 nM in assay [12]; 0.377 nM in assay [13]; 0.28 nM in assay [14]. The Kd turned out to be 0.222 nM in assay [15]; 0.547 nM in assay [17]; 0.67 nM in assay [18]; 0.28 nM in [20]; 0.38 nM in assay [22]; 0.43 nM in assay [23]. In addition, the Kd is 0.119 nM in assay [24], 0.57 nM in assay [25] and 0.41 nM in assay [27]. For the same molecule, the IC50 in [10] worked out at 6.43 nM. Moreover, the koff in [11] amounted to 0.000368 s⁻¹; in assay [12], 8.22e-05 s⁻¹; in assay [13], 0.000378 s⁻¹; in assay [15] it was 0.000105 s⁻¹; in [18], 0.000611 s⁻¹; in assay [24] it was 6.55e-05 s⁻¹. In addition, the koff in [25] came to 0.00049 s⁻¹. For the same molecule, the kon worked out at 1.01e+06 M⁻¹ s⁻¹ in assay [11]; 479000 M⁻¹ s⁻¹ in [12]; 1e+06 M⁻¹ s⁻¹ in [13]; 474000 M⁻¹ s⁻¹ in assay [15]; 550000 M⁻¹ s⁻¹ in assay [24]; 860000 M⁻¹ s⁻¹ in [25]. The binding result is listed as “no binding” in [16], “no binding (tested: 256 nM)” in [19] and “no binding” in assay [21]. In addition, the Stoichiometry in assay [26] is 1.8.

B8: 586H-210 GS removed (bispecific antibody, human IgG1, kappa)
heavy: not shown
light: B7 light
notes: also called BPC1601
On to B8, for which the IC50 in assay [28] came to 36.2 nM. The Kd in [15] is 0.044 nM; in assay [17], 0.438 nM; in assay [30] it was 0.44 nM. In [15], the koff stood at 2.24e-05 s⁻¹. In [15], the kon was determined as 507000 M⁻¹ s⁻¹. The figures for the binding result (in [16]; with recombinant human VEGF; in assay [29]) were “binds”, “no binding” and “no binding”, respectively.

B9: 586H-TVAAPS-154 (bispecific antibody, human IgG1, kappa)
heavy: not shown
light: B7 light
Take B9: the koff in assay [31] came out at 1.15e-07 s⁻¹. Besides, the kon in assay [31] was 64400 M⁻¹ s⁻¹. Besides, the Kd was found to be 0.56 nM in assay [9], 0.49 nM in assay [32], 0.41 nM in assay [23] and 0.002 nM in assay [33].

B10: PascoL-ELQLE-474 (bispecific antibody, human IgG1, kappa)
heavy: not shown
light: DIVLTQSPSSLSASVGDRVTITCKASQSVDYDGDSYMNWYQQKPGKAPKLLIYAASNLESGIPSRFSGSGSGTDFTFTISSLQPEDIATYYCQQSNEDPPTFGQGTKVEIKRTVAAPSVFIFPPSDEQLKSGTASVVCLLNNFYPREAKVQWKVDNALQSGNSQESVTEQDSKDSTYSLSSTLTLSKADYEKHKVYACEVTHQGLSSPVTKSFNRGECELQLEESCAEAQDGELDGGSGVQLLESGGGLVQPGGSLRLSCAASGFTFAWYDMGWVRQAPGKGLEWVSSIDWHGEVTYYADSVKGRFTISRDNSKNTLYLQMNSLRAEDTAVYYCATAEDEPGYDYWGQGTLVTVSS
Turning to B10, the binding result in assay [2] and in assay [3] was “binds” each time.

Usually Kd stands for the equilibrium constant for the complex coming apart. In general, IC50 refers to the midpoint of a concentration-inhibition curve. By koff is commonly meant the first-order rate constant of dissociation. One may read the kon as the second-order rate constant of association.

The record behind these values is US20110008345A1 (GlaxoSmithKline, published 2011).
